{"source": "patent US10966977B2", "about": "“Combination of anti-CD20 antibody, P13 kinase-delta selective inhibitor, and BTK inhibitor to treat b-cell proliferative disorders” (TG Therapeutics, Inc., priority 2016, dated 2021)", "origin": "cited, not measured here", "molecules": {"B1": {"name": "Ublituximab: chimeric monoclonal antibody targeting a unique epitope on the CD20 antigen, glycoengineered for enhanced affinity for Fcγ RIIIa receptors (antibody, V domains shown)", "VH": "QAYLQQSGAELVRPGASVKMSCKASGYTFTSYNMHWVKQTPRQGLEWIGGIYPGNGDTSYNQKFKGKATLTVGKSSSTAYMQLSSLTSEDSAVYFCARYDYNYAMDYWGQGTSVTVSS", "VL": "QIVLSQSPAILSASPGEKVTMTCRASSSVSYMHWYQQKPGSSPKPWIYATSNLASGVPARFSGSGSGTSYSFTISRVEAEDAATYYCQQWTFNPPTFGGGTRLEIK", "modifications": "Ublituximab Variable heavy chain; Ublituximab Variable light chain"}}, "key": {"[1]": {"system": "relapsed and refractory hematologic malignancies", "details": "single agent"}, "CD20": {"target": "T1, CD20 (Homo sapiens, UniProt P11836)", "T1 sequence (P11836 1-297)": "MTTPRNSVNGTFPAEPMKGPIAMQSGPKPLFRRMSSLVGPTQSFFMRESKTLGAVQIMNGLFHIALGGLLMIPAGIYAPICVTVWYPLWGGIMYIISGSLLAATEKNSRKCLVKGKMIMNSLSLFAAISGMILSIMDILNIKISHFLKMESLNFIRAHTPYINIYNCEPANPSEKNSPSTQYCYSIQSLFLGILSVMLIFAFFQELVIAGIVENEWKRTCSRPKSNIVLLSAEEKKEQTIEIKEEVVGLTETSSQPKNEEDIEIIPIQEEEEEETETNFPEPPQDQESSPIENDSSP"}, "CD20 antigen": {"target": "T2, CD20 antigen (Homo sapiens, UniProt P11836)", "T2 sequence (P11836 1-297)": "T1 sequence (P11836 1-297)"}, "[2]": {"details": "single agent"}}, "note": "“Also recorded” adds a separate entry of the source. Structures can show the parent of a compound that is named as a salt."}
{"molecule": "CC(C)Oc1ccc(-c2nn([C@@H](C)c3oc4ccc(F)cc4c(=O)c3-c3cccc(F)c3)c3ncnc(N)c23)cc1F", "note": "[TGR-1202, (S)-2-(1-(4-amino-3-(3-fluoro-4-isopropoxyphenyl)-1H-pyrazolo[3,4-d]pyrimidin-1-yl)ethyl)-6-fluoro-3-(3-fluorophenyl)-4H-chromen-4-one p-toluenesulfonic acid (PTSA) salt]", "values": [{"measurement": "hepatic toxicity", "setting": "[1]", "result": "no reported hepatic toxicity"}, {"measurement": "tolerability", "setting": "[1]; patients with relapsed or refractory hematologic malignancies", "result": "well-tolerated"}]}
{"molecule": "ofatumumab: anti-CD20 IgG1κ human monoclonal antibody", "values": [{"measurement": "dissociation rate from CD20 compared to rituximab", "setting": "CD20", "result": "slower rate"}]}
{"molecule": "B1", "values": [{"measurement": "ADCC activity compared with rituximab and ofatumab", "setting": "CD20 antigen", "result": "greater antibody-dependent cellular cytotoxicity"}, {"measurement": "responses in rituximab refractory patients", "setting": "[2]", "result": "Responses with single agent ublituximab were observed in rituximab refractory patients; also recorded: Responses with single agent ublituximab have been observed in rituximab refractory patients"}]}
